Patent US8075919B2, “Methods for fabrication, uses and compositions of small spherical particles prepared by controlled phase separation” (Baxter International Inc., priority 2003, dated 2011)

Tests used:
[1] = biological target: porcine pancreatic elastase (PPE) (Sus scrofa, UniProt P00772); test: Inhibition of porcine pancreatic elastase by rAAT (specific activity); format: biochemical
Method: To determine the specific activity, the rAAT small spherical particles were dissolved in 0.2M Tris-HCl pH 8.0 at room temperature. The resulting solution was analyzed by an assay which measures the capacity of rAAT to inhibit the ability of porcine pancreatic elastase (PPE) to hydrolyze synthetic peptides that contain a p-nitroanilide group at their C-terminus. The same solution of rAAT small spherical particles was then assayed for protein concentration using the Bicinchoninic Acid (BCA) assay. A control rAAT starting material solution was also analyzed in both assays. Because the activity assay was developed to determine the activity based on a concentration of 1 mg/ml protein per sample, the activity value was corrected based on the actual protein concentration as determined by BCA, giving the specific activity value:
[formula] Inhibition of Porcine Pancreatic Elastase by rAAT

DNA-Methyl Green = conditions: listed value for the starting material; cited from earlier work

Chain of porcine pancreatic elastase (PPE) (P00772 27-266): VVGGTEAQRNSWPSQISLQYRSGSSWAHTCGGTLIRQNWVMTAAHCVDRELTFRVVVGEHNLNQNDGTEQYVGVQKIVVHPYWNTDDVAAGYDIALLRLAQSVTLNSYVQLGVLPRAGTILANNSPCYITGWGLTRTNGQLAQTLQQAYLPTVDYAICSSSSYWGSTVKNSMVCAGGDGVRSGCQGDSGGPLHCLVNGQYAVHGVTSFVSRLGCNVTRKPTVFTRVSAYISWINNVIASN

## alpha-1-antitrypsin [control rAAT starting material]
[1]; scale 100-300 mg (n = 12, column)
  specific activity: 64.34 ± 4.95 IU/mg
[1]; scale 200-300 mg (n = 8, vessel)
  specific activity: 65.87 ± 0.98 IU/mg

## DNase [DNase starting material]
DNA-Methyl Green
  theoretical activity as listed: 775 Ku/mg protein
